B1: Galactose/lactose metabolism regulatory protein GAL80 (Saccharomyces cerevisiae), P04387 (parent)
chain: MDYNKRSSVSTVPNAAPIRVGFVGLNAAKGWAIKTHYPAILQLSSQFQITALYSPKIETSIATIQRLKLSNATAFPTLESFASSSTIDMIVIAIQVASHYEVVMPLLEFSKNNPNLKYLFVEWALACSLDQAESIYKAAAERGVQTIISLQGRKSPYILRAKELISQGYIGDINSIEIAGNGGWYGYERPVKSPKYIYEIGNGVDLVTTTFGHTIDILQYMTSSYFSRINAMVFNNIPEQELIDERGNRLGQRVPKTVPDHLLFQGTLLNGNVPVSCSFKGGKPTKKFTKNLVIDIHGTKGDLKLEGDAGFAEISNLVLYYSGTRANDFPLANGQQAPLDPGYDAGKEIMEVYHLRNYNAIVGNIHRLYQSISDFHFNTKKIPELPSQFVMQGFDFEGFPTLMDALILHRLIESVYKSNMMGSTLNVSNISHYSL
partner: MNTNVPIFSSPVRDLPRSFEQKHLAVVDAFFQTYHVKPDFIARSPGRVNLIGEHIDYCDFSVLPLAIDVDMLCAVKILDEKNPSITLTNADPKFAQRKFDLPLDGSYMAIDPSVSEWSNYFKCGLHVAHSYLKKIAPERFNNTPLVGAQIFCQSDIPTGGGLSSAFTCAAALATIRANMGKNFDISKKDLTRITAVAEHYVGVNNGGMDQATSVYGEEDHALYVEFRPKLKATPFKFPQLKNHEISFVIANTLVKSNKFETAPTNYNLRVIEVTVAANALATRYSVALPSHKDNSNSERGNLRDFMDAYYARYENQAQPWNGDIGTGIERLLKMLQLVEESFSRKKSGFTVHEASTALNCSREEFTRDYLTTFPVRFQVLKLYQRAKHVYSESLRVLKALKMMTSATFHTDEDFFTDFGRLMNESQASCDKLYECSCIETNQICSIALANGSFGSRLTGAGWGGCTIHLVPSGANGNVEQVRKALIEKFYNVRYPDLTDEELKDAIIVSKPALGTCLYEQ

Variants of: B1
Settings: with gal3_yeast GAL3, P13045

effect of a mutation on the interaction | Variant
with no effect | MDYNKRSSVSTVPNAAPIRVGFVGLNAAKGWAIKTHYPAILQLSSQFQITALYSPKIETSIATIQRLKLSNATAFPTLESFASSSTIDMIVIAIQVASHYEVVMPLLEFSKNNPNLKYLFVEWALACSLDQAESIYKAAAERGVQTIISLQGRKSPYILRAKELISQGYIGDINSIEIAGNGGWYGYERPVKSPKYIYEIGNGVDLVTTTFGHTIDILQYMTSSYFSRINAMVFNNIPEQELIDERGNRLGQRVPKTVPDHLLFQGTLLNGNVPVSCSFKGGKPTKKFTKNLVIDIHGTKGDLKLEGDAGFAEISNLVLYYSGTRANDFPLANGQQAPLDPGYDAGKEIMKVYHLRNYNAIVGNIHRLYQSISDFHFNTKKIPELPSQFVMQGFDFEGFPTLMDALILHRLIESVYKSNMMGSTLNVSNISHYSL [E351K]

Reference: IntAct's records for PubMed 23858060
